For assay [1], the target named is Myc-Lphn3 with a C-terminal Avitag [mouse]. Put plainly: anti-GFP (mV) pull-down, quantified blot. As to conditions: lysate of HEK293 cells co-transfected with FLAG-FLRT2; averaged over 3-4 independent experiments; parent: 1.1; read off a plot.
Assay [2] has as its target HA-Unc5D with a C-terminal Avitag [rat]. The assay is described as follows: anti-GFP (mV) pull-down, quantified blot. As to conditions: lysate of HEK293 cells co-transfected with FLAG-FLRT2; averaged over 3-4 independent experiments; parent: 1; read off a plot.

For “HA-Unc5D mono-Venus fusion protein (HA-Unc5D-mV) mutant W89N; H91T [rat] / Myc-Lphn3 with a C-terminal Avitag [mouse] chain 1 W44N, chain 1 H46T”, the response (normalized intensity) in assay [1] was found to be 0.35.

On to “Myc-Lphn3-mV mutant R292N; R294T [mouse] / HA-Unc5D with a C-terminal Avitag [rat] chain 1 R273N, chain 1 R275T”, for which the response (normalized intensity) in assay [2] is 0.41.

These data come from publication PMC4838878.
